Measurements taken from the supplement of paper PMC12764529.
± gives the half width of the 95% confidence interval.

Legend:
[1] = folding stability dG unfold from chymotrypsin proteolysis; higher = more stable
Procedure: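 Folding stability of de novo designed mini-proteins (<80 aa, no Cys; designed by TrROS, TrMRF, ProteinMPNN and the joint model) was measured by cDNA display proteolysis with trypsin and chymotrypsin. Each protease was used at 11 concentrations in a threefold dilution series plus a no-protease condition. K50 was inferred by Bayesian fitting of sequencing counts, and dG unfold was derived against a sequence-predicted unfolded-state K50 (Tsuboyama et al. method). Sequences shown include variable-length N-terminal GS-type padding (SAGGSAGG...) inside a display construct carrying a PA tag. Rows were kept only if the AF2 dimer inter-PAE was >15, to exclude likely homo-oligomers.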

[2] = folding stability dG unfold (combined trypsin and chymotrypsin); higher = more stable
How it was run: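 Sequencing followed digestion of designed mini-proteins with trypsin and chymotrypsin, each at 11 concentrations in threefold dilutions together with a no-protease condition. The mini-proteins were under 80 residues, had no cysteine, sat in a PA-tagged cDNA display construct, and were kept only if AlphaFold2 dimer inter-PAE was above 15. From the counts, Bayesian fitting gave K50, and unfolding free energy was derived against a sequence-predicted unfolded-state K50 and a shared folded-state K50, per protease or combined.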

Sequence: SAGGSAGGSAGGSTVTVTSEEEAQEAREALAAERAAAEPGAEPPEAFPVEVEVVPPELRSAGGSAGGSAGGS [r4_498_JUSTAS]
- folding stability dG unfold [1]: 0.633 ± 0.047 kcal/mol
- folding stability dG unfold [2]: 0.0161 ± 0.22 kcal/mol

Sequence: SAGGSAGGSAGGVRIPPGHWKHRLGFPNGKENEFNIPPGAPIEIPPNADDVKIQEIEPVPSAGGSAGGSAGG [r7_542_TrROS]
- folding stability dG unfold [1]: -0.251 ± 0.36 kcal/mol
- folding stability dG unfold [2]: < -1 kcal/mol

Sequence: SAGGSAGGSAGGVTVSPEEYLATFPPGLTLRDSAGNLHELGDRAPVDPAAPVTLLSPEELSAGGSAGGSAGG [r7_507_JUSTAS]
- folding stability dG unfold [1]: 0.464 ± 0.039 kcal/mol
- folding stability dG unfold [2]: -0.18 ± 0.12 kcal/mol

Sequence: SAGGSAGGSAGKKKVLILGGDAVATAKELKKLGEDVEVEVLESGEDLEEHLKNYDLVLSGSAGGSAGGSAGG [r17_225_TrMRF]
- folding stability dG unfold [1]: 0.344 ± 0.14 kcal/mol
- folding stability dG unfold [2]: 0.106 ± 0.27 kcal/mol

Sequence: SAGGSAGGSAGKKTLYVIKIELSDEQLKEAKKEGKPLKLKAEIVEVKPVKVEVKKEYKKESAGGSAGGSAGG [r11_26_TrROS_Hall]
- folding stability dG unfold [1]: 0.586 ± 0.31 kcal/mol
- folding stability dG unfold [2]: -0.167 ± 0.56 kcal/mol

Sequence: SAGGSAGGSAGMETRLIAVLEDGEAVFEDGGTLITVPADEDVADIPDGGGLGTIYIPKDGSAGGSAGGSAGG [r11_647_TrMRF]
- folding stability dG unfold [1]: 0.53 ± 0.036 kcal/mol
- folding stability dG unfold [2]: -0.0625 ± 0.17 kcal/mol

Sequence: SAGGSAGGSAGMGSTSTSTSITPTPEGRIVVDTTTTFTDPGGVPVGSTTTTTTLPPGAAASAGGSAGGSAGG [r11_898_JUSTAS]
- folding stability dG unfold [1]: 0.242 ± 0.066 kcal/mol
- folding stability dG unfold [2]: -0.279 ± 0.16 kcal/mol

Sequence: SAGGSAGGSAGMKDNLVVTRTYTLPDDTVLVTRATFDSNPELVTVDVTEVPLSDVAPDAVSAGGSAGGSAGG [r11_493_TrMRF]
- folding stability dG unfold [1]: 0.514 ± 0.11 kcal/mol
- folding stability dG unfold [2]: -0.0312 ± 0.14 kcal/mol

Sequence: SAGGSAGGSAGMKVIVLPVPPNADRVRITYEKGPTLEIEAREDEPVVIVAPENEFTVEVDSAGGSAGGSAGG [r11_52_TrMRF]
- folding stability dG unfold [1]: -0.383 ± 0.28 kcal/mol
- folding stability dG unfold [2]: < -1 kcal/mol

Sequence: SAGGSAGGSAGMLSVTELSTEEKGSLVTTTTRATVGSTTVTTTTTTFVPRSTALLNPDRGSAGGSAGGSAGG [r11_213_JUSTAS]
- folding stability dG unfold [1]: 0.55 ± 0.089 kcal/mol
- folding stability dG unfold [2]: -0.0509 ± 0.48 kcal/mol

Sequence: SAGGSAGGSAGMRLLTEEIVVEQFFYETGETRLTVLTKEILVVPPRPVPVPLPEGGLRLLSAGGSAGGSAGG [r11_307_JUSTAS]
- folding stability dG unfold [1]: 0.925 ± 0.11 kcal/mol
- folding stability dG unfold [2]: 0.184 ± 0.13 kcal/mol

Sequence: SAGGSAGGSAGMVIPSTSPEEAVEKLRELVEKRGDFLVDVKPTEVHPDGTVVIETKKKPLSAGGSAGGSAGG [r17_430_JUSTAS]
- folding stability dG unfold [1]: 0.21 ± 0.09 kcal/mol
- folding stability dG unfold [2]: -0.269 ± 0.21 kcal/mol

Sequence: SAGGSAGGSAGMVTEESLEIEPGKGLIVRTVTDRRESGIVTETEKTPVSEAEREAIRKALSAGGSAGGSAGG [r11_47_JUSTAS]
- folding stability dG unfold [1]: 0.0861 ± 0.056 kcal/mol
- folding stability dG unfold [2]: -0.201 ± 0.11 kcal/mol

Sequence: SAGGSAGGSAGNISSLPPTPITGSSLKRFVVKRPDGTEEEVTLEITYYPETGKEIISTIKSAGGSAGGSAGG [r11_1024_JUSTAS]
- folding stability dG unfold [1]: 0.107 ± 0.31 kcal/mol
- folding stability dG unfold [2]: -0.0512 ± 0.21 kcal/mol

Sequence: SAGGSAGGSAGPDVEVVIIPVDPETGEPLDALPIPIPSPEGGLVDEIVKAIPPDRYRVLASAGGSAGGSAGG [r17_339_TrMRF]
- folding stability dG unfold [1]: -0.336 ± 0.45 kcal/mol
- folding stability dG unfold [2]: < -1 kcal/mol

Sequence: SAGGSAGGSAGPMYKLKAELNNKPFEVMINPDMPPDDQIYIRDPGEWIEFNIENMKVEPVSAGGSAGGSAGG [r11_247_TrROS]
- folding stability dG unfold [1]: 0.298 ± 0.21 kcal/mol
- folding stability dG unfold [2]: -0.0971 ± 0.14 kcal/mol

Sequence: SAGGSAGGSAGPRRFMFQIPADEVKLEFPGGAKVTDVEEDPDGYRRVMIEIPPGADPELKSAGGSAGGSAGG [r17_48_TrROS]
- folding stability dG unfold [1]: 0.142 ± 0.32 kcal/mol
- folding stability dG unfold [2]: -0.129 ± 0.2 kcal/mol

Sequence: SAGGSAGGSAGQPKPLPGGGEVKVEVYPPNNGKKKKFEIPPNEPDWIKELAKPGYSVHIESAGGSAGGSAGG [r11_1006_TrROS]
- folding stability dG unfold [1]: 0.0183 ± 0.089 kcal/mol
- folding stability dG unfold [2]: -0.677 ± 0.43 kcal/mol

Sequence: SAGGSAGGSAGSMDSLPMPQVTPKVVELNVPPEEAEKLKKELGAKEIKFSPEGKLIIYLESAGGSAGGSAGG [r11_64_JUSTAS]
- folding stability dG unfold [1]: -0.353 ± 0.078 kcal/mol
- folding stability dG unfold [2]: -0.453 ± 0.2 kcal/mol

Sequence: SAGGSAGGSAGSMVEVTYEPDPATGGSRIVTTTRFPDRNTVTVTELDPNAGVPLETVEVESAGGSAGGSAGG [r11_676_JUSTAS]
- folding stability dG unfold [1]: -0.16 ± 0.029 kcal/mol
- folding stability dG unfold [2]: -0.433 ± 0.089 kcal/mol

Sequence: SAGGSAGGSAGTATLELTVGGKKATATVEPDPDSPAPVVTVKVGDKPVVLNPDGTWTPADSAGGSAGGSAGG [r11_732_TrMRF]
- folding stability dG unfold [1]: -0.908 ± 0.2 kcal/mol
- folding stability dG unfold [2]: < -1 kcal/mol
